From IntAct's records for PubMed 31515488 come the findings set out here.

To fix the notation:
B1: Protein BANP (Homo sapiens), Q8N9N5 (parent)
chain: MMSEHDLADVVQIAVEDLSPDHPVVLENHVVTDEDEPALKRQRLEINCQDPSIKTICLRLDSIEAKLQALEATCKSLEEKLDLVTNKQHSPIQVPMVAGSPLGATQTCNKVRCVVPQTTVILNNDRQNAIVAKMEDPLSNRAPDSLENVISNAVPGRRQNTIVVKVPGQEDSHHEDGESGSEASDSVSSCGQAGSQSIGSNVTLITLNSEEDYPNGTWLGDENNPEMRVRCAIIPSDMLHISTNCRTAEKMALTLLDYLFHREVQAVSNLSGQGKHGKKQLDPLTIYGIRCHLFYKFGITESDWYRIKQSIDSKCRTAWRRKQRGQSLAVKSFSRRTPNSSSYCPSEPMMSTPPPASELPQPQPQPQALHYALANAQQVQIHQIGEDGQVQVGHLHIAQVPQGEQVQITQDSEGNLQIHHVGQDGQLLEATRIPCLLAPSVFKASSGQVLQGAQLIAVASSDPAAAGVDGSPLQGSDIQVQYVQLAPVSDHTAGAQTAEALQPTLQPEMQLEHGAIQIQ
partner: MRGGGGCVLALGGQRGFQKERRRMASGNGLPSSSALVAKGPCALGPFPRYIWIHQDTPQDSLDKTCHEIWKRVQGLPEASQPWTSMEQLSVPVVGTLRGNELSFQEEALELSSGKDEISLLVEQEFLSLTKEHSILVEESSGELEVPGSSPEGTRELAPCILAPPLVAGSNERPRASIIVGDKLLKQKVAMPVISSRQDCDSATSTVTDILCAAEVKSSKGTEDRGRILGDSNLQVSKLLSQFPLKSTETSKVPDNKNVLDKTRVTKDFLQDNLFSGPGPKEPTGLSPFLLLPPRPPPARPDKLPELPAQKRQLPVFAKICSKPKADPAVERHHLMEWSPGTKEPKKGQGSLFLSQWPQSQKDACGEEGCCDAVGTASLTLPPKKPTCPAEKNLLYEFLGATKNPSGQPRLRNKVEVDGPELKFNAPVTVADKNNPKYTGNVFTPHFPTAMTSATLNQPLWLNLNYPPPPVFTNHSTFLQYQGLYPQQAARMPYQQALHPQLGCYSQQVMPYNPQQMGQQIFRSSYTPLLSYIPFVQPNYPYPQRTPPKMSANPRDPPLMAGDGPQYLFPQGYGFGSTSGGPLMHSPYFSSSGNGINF
B2: BRCA1-A complex subunit RAP80 (Homo sapiens), Q96RL1-2 (parent)
chain: MPRRKKKVKEVSESRNLEKKDVETTSSVSVKRKRRLEDAFIVISDSDGEEPKEENGLQKTKTKQSNRAKCLAKRKIAQMTEEEQFALALKMSEQEAREVNSQEEEEEELLRKAIAESLNSCRPSDASATRSRPLATGPSSQSHQEKTTDSGLTEGIWQLVPPSLFKGSHISQGNEAEEREEPWDHTEKTEEEPVSGSSGSWDQSSQPVFENVNVKSFDRCTGHSAEHTQCGKPQSSQGIVEETSEEGNSVPASQSVAALTSKRSLVLMPESSAEEITVCPETQLSSSETFDLEREVSPGSRDILDGVRIIMADKEVGNKEDAEKEVAISTFSSSNQVSCPLCDQCFPPTKIERHAMYCNGLMEEDTVLTRRQKEAKTKSDSGTAAQTSLDIDKNEKCYLCKSLVPFREYQCHVDSCLQLAKADQGDGPEGSGRACSTVEGKWQQRLKNPKEKGHSEGRLLSFLEQSEHKTSDADIKSSETGAFRVPSPGMEEAGCSREMQSSFTRRDLNESPVKSFVSISEATDCLVDFKKQVTVQPGSRTRTKAGRGRRRKF
partner: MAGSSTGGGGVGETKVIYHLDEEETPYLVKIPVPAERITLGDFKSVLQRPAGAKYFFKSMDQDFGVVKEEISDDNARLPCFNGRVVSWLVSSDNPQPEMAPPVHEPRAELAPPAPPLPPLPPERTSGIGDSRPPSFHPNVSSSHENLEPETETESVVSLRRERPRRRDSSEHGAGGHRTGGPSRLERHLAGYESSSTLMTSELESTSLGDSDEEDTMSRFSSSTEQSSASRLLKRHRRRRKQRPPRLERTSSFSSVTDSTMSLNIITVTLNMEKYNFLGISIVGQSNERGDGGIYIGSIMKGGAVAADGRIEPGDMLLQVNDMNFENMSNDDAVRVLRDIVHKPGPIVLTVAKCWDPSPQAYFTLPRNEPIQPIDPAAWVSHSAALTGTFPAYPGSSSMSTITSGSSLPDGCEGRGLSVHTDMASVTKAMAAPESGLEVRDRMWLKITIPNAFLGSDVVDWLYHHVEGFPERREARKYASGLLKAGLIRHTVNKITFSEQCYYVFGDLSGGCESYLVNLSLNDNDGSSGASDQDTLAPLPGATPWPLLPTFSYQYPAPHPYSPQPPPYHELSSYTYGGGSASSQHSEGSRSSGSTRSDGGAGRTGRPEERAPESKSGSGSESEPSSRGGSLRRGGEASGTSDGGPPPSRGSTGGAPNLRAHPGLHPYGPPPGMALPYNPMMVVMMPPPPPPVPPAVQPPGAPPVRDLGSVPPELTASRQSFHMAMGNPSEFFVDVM
B3: Ribosome quality control complex subunit TCF25 (Homo sapiens), Q9BQ70 (parent)
chain: MSRRALRRLRGEQRGQEPLGPGALHFDLRDDDDAEEEGPKRELGVRRPGGAGKEGVRVNNRFELINIDDLEDDPVVNGERSGCALTDAVAPGNKGRGQRGNTESKTDGDDTETVPSEQSHASGKLRKKKKKQKNKKSSTGEASENGLEDIDRILERIEDSTGLNRPGPAPLSSRKHVLYVEHRHLNPDTELKRYFGARAILGEQRPRQRQRVYPKCTWLTTPKSTWPRYSKPGLSMRLLESKKGLSFFAFEHSEEYQQAQHKFLVAVESMEPNNIVVLLQTSPYHVDSLLQLSDACRFQEDQEMARDLVERALYSMECAFHPLFSLTSGACRLDYRRPENRSFYLALYKQMSFLEKRGCPRTALEYCKLILSLEPDEDPLCMLLLIDHLALRARNYEYLIRLFQEWEAHRNLSQLPNFAFSVPLAYFLLSQQTDLPECEQSSARQKASLLIQQALTMFPGVLLPLLESCSVRPDASVSSHRFFGPNAEISQPPALSQLVNLYLGRSHFLWKEPATMSWLEENVHEVLQAVDAGDPAVEACENRRKVLYQRAPRNIHRHVILSEIKEAVAALPPDVTTQSVMGFDPLPPSDTIYSYVRPERLSPISHGNTIALFFRSLLPNYTMEGERPEEGVAGGLNRNQGLNRLMLAVRDMMANFHLNDLEAPHEDDAEGEGEWD
partner: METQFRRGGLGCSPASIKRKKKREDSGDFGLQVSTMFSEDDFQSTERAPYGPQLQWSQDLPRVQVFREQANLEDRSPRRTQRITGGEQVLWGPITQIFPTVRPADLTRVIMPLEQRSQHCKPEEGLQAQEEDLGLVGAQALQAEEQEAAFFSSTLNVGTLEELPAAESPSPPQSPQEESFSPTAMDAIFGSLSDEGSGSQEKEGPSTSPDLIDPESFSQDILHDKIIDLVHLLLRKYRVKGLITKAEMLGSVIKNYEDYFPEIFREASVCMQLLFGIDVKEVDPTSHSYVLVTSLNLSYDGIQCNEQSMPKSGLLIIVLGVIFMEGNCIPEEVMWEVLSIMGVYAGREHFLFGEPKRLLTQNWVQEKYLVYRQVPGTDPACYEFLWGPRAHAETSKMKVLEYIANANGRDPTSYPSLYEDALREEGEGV
B4: Cyclin-D1-binding protein 1 (Homo sapiens), O95273 (parent)
chain: MASATAPAAAVPTLASPLEQLRHLAEELRLLLPRVRVGEAQETTEEFNREMFWRRLNEAAVTVSREATTLTIVFSQLPLPSPQETQKFCEQVHAAIKAFIAVYYLLPKDQGITLRKLVRGATLDIVDGMAQLMEVLSVTPTQSPENNDLISYNSVWVACQQMPQIPRDNKAAALLMLTKNVDFVKDAHEEMEQAVEECDPYSGLLNDTEENNSDNHNHEDDVLGFPSNQDLYWSEDDQELIIPCLALVRASKACLKKIRMLVAENGKKDQVAQLDDIVDISDEISPSVDDLALSIYPPMCHLTVRINSAKLVSVLKKALEITKASHVTPQPEDSWIPLLINAIDHCMNRIKELTQSELEL
partner: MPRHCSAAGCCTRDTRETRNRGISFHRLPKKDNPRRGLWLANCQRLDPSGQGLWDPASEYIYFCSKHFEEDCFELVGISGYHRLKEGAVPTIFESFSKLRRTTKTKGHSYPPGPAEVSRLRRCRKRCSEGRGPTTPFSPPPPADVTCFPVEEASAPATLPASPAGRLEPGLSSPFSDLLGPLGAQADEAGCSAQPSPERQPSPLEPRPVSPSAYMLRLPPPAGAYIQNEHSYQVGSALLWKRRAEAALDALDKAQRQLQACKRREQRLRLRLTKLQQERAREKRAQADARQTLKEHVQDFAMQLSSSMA
B5: Protein BANP (Homo sapiens), Q8N9N5 (parent)
chain: B1 chain
partner: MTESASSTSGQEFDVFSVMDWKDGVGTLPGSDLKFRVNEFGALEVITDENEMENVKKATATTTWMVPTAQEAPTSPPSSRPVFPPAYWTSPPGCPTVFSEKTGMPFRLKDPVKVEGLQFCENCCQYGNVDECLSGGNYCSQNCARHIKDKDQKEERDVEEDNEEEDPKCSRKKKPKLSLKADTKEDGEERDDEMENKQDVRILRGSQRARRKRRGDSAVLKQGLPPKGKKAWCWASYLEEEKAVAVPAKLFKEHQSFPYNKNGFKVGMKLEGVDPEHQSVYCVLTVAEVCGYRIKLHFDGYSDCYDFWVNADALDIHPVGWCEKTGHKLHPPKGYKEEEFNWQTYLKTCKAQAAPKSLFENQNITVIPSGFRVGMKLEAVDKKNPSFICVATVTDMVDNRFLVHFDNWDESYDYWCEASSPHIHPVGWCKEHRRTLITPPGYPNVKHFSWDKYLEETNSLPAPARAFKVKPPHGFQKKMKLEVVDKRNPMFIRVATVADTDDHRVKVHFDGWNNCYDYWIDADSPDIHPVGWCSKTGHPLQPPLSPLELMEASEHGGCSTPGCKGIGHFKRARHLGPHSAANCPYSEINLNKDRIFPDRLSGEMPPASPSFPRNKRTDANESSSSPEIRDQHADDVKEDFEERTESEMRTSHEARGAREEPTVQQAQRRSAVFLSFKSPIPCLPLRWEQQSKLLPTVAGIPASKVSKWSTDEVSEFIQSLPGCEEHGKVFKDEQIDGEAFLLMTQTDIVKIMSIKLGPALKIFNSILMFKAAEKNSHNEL

Variants of B1 are the subject of the first assay. Conditions: with ca094_human C1orf94, Q6P1W5.
Take P348S: the “effect of a mutation on the interaction” value is on record as “with no effect”.

In another assay the parent is B2. The settings on record: with dvl2_human DVL2, O14641.
Regarding G48E, the “effect of a mutation on the interaction” value was “with no effect”.

Variants of B3 are the subject of a further assay. The settings on record: with magab_human MAGEA11, P43364.
Consider V526A, for which the “effect of a mutation on the interaction” value was “with no effect”.

Variants of B4 are the subject of the next assay. The settings on record: with thap7_human THAP7, Q9BT49.
In the case of I277T, the “effect of a mutation on the interaction” value was “disrupting interaction strength”.

The variants in another assay derive from B5. The settings on record: with lmbl3_human L3MBTL3, Q96JM7.
Turning to P348S, the “effect of a mutation on the interaction” value is given as “with no effect”.
